Experimental data published in the supplement of paper PMC10724198.
± gives the standard deviation of the averaged measurements.

Tested on: Saccharomyces cerevisiae
Assay: protein stability index of tFT-peptide fusion (C-terminal peptide) (PSI (0-1 scale)); higher = more stable (slower turnover)
Conditions: temperature: 30 C
Procedure: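 MPS profiling in S. cerevisiae of the yeast C-terminome library: the last 12 aa of each annotated ORF are fused to the C-terminus of a sfGFP-mCherry timer, after a GGGS linker. Cells are FACS-sorted into 8 mCherry/sfGFP bins and deep-sequenced. PSI runs from 0 (unstable) to 1 (stable); wild type and das1Δ backgrounds, two technical replicates each.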

[1] = genetic background: das1 deletion

Sequence	protein stability index [1]	protein stability index (genetic background: wild type)
SSTGTPEHDQDT [EUC1 C-terminal 12 aa]	0.69 ± 0.0083	0.682 ± 0.025
STATGKLKKRKM [RAD2 C-terminal 12 aa]	0.718 ± 0.023	0.649 ± 0.021
STFSIVSSISLW [YPL044C C-terminal 12 aa]	0.6894 ± 0.0026	0.665 ± 0.057
STPIAIGIMNIL [YDR271C C-terminal 12 aa]	0.674 ± 0.018	0.697 ± 0.0089
STSSLKRQRTDF [REX2 C-terminal 12 aa]	0.718 ± 0.011	0.712 ± 0.017
STTADSTTNSAN [YLR146W-A C-terminal 12 aa]	0.696 ± 0.014	0.664 ± 0.011
SVFLLNITYLLD [YOR314W C-terminal 12 aa]	0.236 ± 0.0099	0.268 ± 0.018
SVTFFIQDILCL [YPL073C C-terminal 12 aa]	0.389 ± 0.019	0.407 ± 0.015
SWINLDFNDGDE [MDM12 C-terminal 12 aa]	0.6957 ± 0.004	0.67488 ± 0.00028
SYRVMQPNEFES [YGL214W C-terminal 12 aa]	0.7 ± 0.016	0.711 ± 0.11
TAAQILKKQNRL [YDR541C C-terminal 12 aa]	0.6454 ± 0.0021	0.704 ± 0.063
TALLENDANLIS [ERV15 C-terminal 12 aa]	0.703 ± 0.019	0.703 ± 0.021
TALNSGRSRDVK [YJL027C C-terminal 12 aa]	0.6821 ± 0.0027	0.678 ± 0.019
TCLTGEVIFPPR [NPC2 C-terminal 12 aa]	0.7115 ± 0.0058	0.72 ± 0.017
TDGLNVWKTISV [RRB1 C-terminal 12 aa]	0.661 ± 0.023	0.6468 ± 0.0058
TEDKNKALESAQ [VPS60 C-terminal 12 aa]	0.702 ± 0.013	0.6706 ± 0.0056
TEDQFKENGVKK [ICL1 C-terminal 12 aa]	0.703 ± 0.033	0.716 ± 0.065
TEEMKDAEEMKQ [RIX7 C-terminal 12 aa]	0.685 ± 0.014	0.661 ± 0.017
TEFMNFWINVLP [RSC4 C-terminal 12 aa]	0.725 ± 0.028	0.715 ± 0.02
TFEELWNGVEGI [ARH1 C-terminal 12 aa]	0.722 ± 0.016	0.682 ± 0.038
TFGKCILDGFKA [SCM4 C-terminal 12 aa]	0.709 ± 0.017	0.687 ± 0.05

Sequence	protein stability index [1]	protein stability index (genetic background: wild type)
TGQVGVPTISQV [NCE102 C-terminal 12 aa]	0.687 ± 0.021	0.6819 ± 0.0068
THENIHQKFVQF [SFB3 C-terminal 12 aa]	0.7294 ± 0.004	0.6358 ± 0.0022
THTHHNPNPTLF [YNL338W C-terminal 12 aa]	0.707 ± 0.011	0.716 ± 0.075
TILFMLVLYTIV [YDL241W C-terminal 12 aa]	0.222 ± 0.017	0.222 ± 0.023
TKVIQVQKKCIQ [IRC14 C-terminal 12 aa]	0.688 ± 0.026	0.672 ± 0.032
TKVYFLGRDSSV [NDE2 C-terminal 12 aa]	0.688 ± 0.013	0.6764 ± 0.0011
TLIDYFIENDGL [LYS5 C-terminal 12 aa]	0.7227 ± 0.0034	0.761 ± 0.092
TLRGLSNAFPTD [MME1 C-terminal 12 aa]	0.7057 ± 0.0043	0.703 ± 0.013
TPKYVESDEDDQ [TOF2 C-terminal 12 aa]	0.654 ± 0.041	0.7196 ± 0.0037
TQSPADFSSQNH [NHX1 C-terminal 12 aa]	0.74 ± 0.021	0.701 ± 0.021
TRGEATLRANYQ [YOR008W-B C-terminal 12 aa]	0.6862 ± 0.003	0.73 ± 0.055
TRGPRRKLPTRV [BSP1 C-terminal 12 aa]	0.6863 ± 0.0066	0.672 ± 0.06
TSIEEDLASKSE [RTA1 C-terminal 12 aa]	0.689 ± 0.02	0.676 ± 0.008
TSSQYEGVALGM [EAF3 C-terminal 12 aa]	0.695 ± 0.013	0.669 ± 0.0083
TTHGLKQKLQHA [RTN2 C-terminal 12 aa]	0.701 ± 0.011	0.698 ± 0.024
TTRYAKEMNIIS [HIR2 C-terminal 12 aa]	0.694 ± 0.031	0.705 ± 0.054
TVSSVESVLAHL [AHP1 C-terminal 12 aa]	0.728 ± 0.016	0.7489 ± 0.0029
VACDSDSSSTIE [YEN1 C-terminal 12 aa]	0.679 ± 0.016	0.699 ± 0.014
VATYLREHEYDQ [AAP1 C-terminal 12 aa]	0.6847 ± 0.0021	0.7314 ± 0.0051
VDFIKEFAEKNA [SER1 C-terminal 12 aa]	0.708 ± 0.011	0.706 ± 0.014
VDIRSFRQDMDL [YJR056C C-terminal 12 aa]	0.703 ± 0.021	0.664 ± 0.017

Sequence	protein stability index [1]	protein stability index (genetic background: wild type)
VDNFISVLKQGQ [LOS1 C-terminal 12 aa]	0.7081 ± 0.0044	0.668 ± 0.0073
VDVLKLNDPTRH [BCY1 C-terminal 12 aa]	0.716 ± 0.031	0.706 ± 0.042
VEAVKRVLTKKF [IMG2 C-terminal 12 aa]	0.6883 ± 0.0047	0.694 ± 0.012
VFDENMYSKYSS [BRO1 C-terminal 12 aa]	0.712 ± 0.012	0.712 ± 0.032
VFLVISQHSLHS [YDR545C-A C-terminal 12 aa]	0.6541 ± 0.0036	0.652 ± 0.011
VGADSYAEEEEF [TUB1 C-terminal 12 aa]	0.687 ± 0.032	0.676 ± 0.032
VGDIVWKIRNIN [TTI1 C-terminal 12 aa]	0.689 ± 0.026	0.1985 ± 0.0019
VGDLEAGLRRKK [IMG1 C-terminal 12 aa]	0.712 ± 0.0076	0.6655 ± 0.0024
VHCGCRGCASTD [BUD31 C-terminal 12 aa]	0.669 ± 0.0018	0.673 ± 0.017
VIDLDNSVAREV [MDL1 C-terminal 12 aa]	0.7044 ± 0.0069	0.64 ± 0.007
VILMVDFTLVGP [YDR262W C-terminal 12 aa]	0.429 ± 0.023	0.426 ± 0.0078
VKKLLEIRSKSS [GTT2 C-terminal 12 aa]	0.681 ± 0.0073	0.369 ± 0.0065
VKKLVTDMLAKI [CFT2 C-terminal 12 aa]	0.6957 ± 0.00094	0.669 ± 0.029
VLSFNPKVWLLV [YAR068W C-terminal 12 aa]	0.562 ± 0.0081	0.0978 ± 0.0096
VNGELKYVKPED [AFT1 C-terminal 12 aa]	0.6945 ± 0.0046	0.6909 ± 0.0017
VPGNPGVVFQNI [CDC60 C-terminal 12 aa]	0.708 ± 0.018	0.75 ± 0.082
VQSTDIAAMQKL [EFB1 C-terminal 12 aa]	0.721 ± 0.014	0.683 ± 0.035
VRKLSFHVYEDE [ACM1 C-terminal 12 aa]	0.6908 ± 0.001	0.658 ± 0.0079
VSKMDCDPLTVA [NIF3 C-terminal 12 aa]	0.678 ± 0.027	0.676 ± 0.025
